The values below come from the PETadex activity labels.

Substrate in this series: BHET
To be noted: 120 h.

B1: unnamed (protein)
chain: MRALLSPTRRRLMTRVSTLSTLPLRRVLCSLALSAVAAAASAQTAPPTSASLNATAGPLAVSSVAISGATGFGGGTIYYPQAAGSYGVIAISPGYGARGSSLAWLARRLATHGFVVAAINTTSTMDSPPSRGPQLMAALDHVVNKADANVRSRADGSRMAVMGHSAGGGGALVAARDNPTLKAAVALTPGSFGNFYSGVRVPTIIFGADGDTITPVTSQARPAYNSIPVTTPKAYGELNNATHLTPVSTNTPIGRYSVAWAKRFVDGDTRYS
With B1, the plate clearing result is given as “not clears the plate”.

B2: unnamed (protein)
chain: MATFNQLMHWSLAGLAVSMLGACGGGGGGGTPDAPPVMTPAPLPAPIPAPLPPLPPPPPAPTACTTSCRGADPTPASVEADAGPYAVATLALTQANGAAAMVYYPTGSSESFGAVVTMPGWDGDQSNLQWLGPRLASNGFVVINVDTPARRGDFPDARARFGVQALDQVVTLSATPGNALSGKVDAARLGMVGHSMGGGAALVAARDHPGLFKAVVPLSPWYDQATRDFPSATPALVFVCTGDMTASVAGYALPVYDSLRSHKAYVEAAHVPVPGGDAHNCVRTGVANRPKLGKTVVSWLKLWLDGDPRYLPFVCGAQNPGTDAGFTNVWRSSCPF
Take B2: the plate clearing entry is listed as “not clears the plate”.

B3: unnamed (protein)
chain: MHETNTRVRAGRACGCARAVRRVERGRVGRGRCLMRYRAFAWWWVCACLLLACGDTSGGNADETGPVTGQQPAAGASGQSASGTGGGTPAMPMSGGTSAGSAGRAGSAGMPPPAAGMGSMAGEGGTAGTDADAGASGVGGSAGGTSGVGGSAGSAGEGPDPEGPDPTTESASRAGPLNVESIPWTEFRNGPDFAGGTIWYPTDGEPPYPFVAIVPGFTAYESSIRSWGPFLASHNIVAITIDTNTTADQPPTRAAALLDALESVAAENSRSGSPLMDKLDESRQALMGWSMGGGGTLIAANRTPSLKAAISLCGWNPLGSYSMMTVPSLMFASLGDPLAGGQSQGFYRSIPDTTPKMLIEAGVADHFVANNPAYLNGLIGRYGLSWLKVFMVGDERYRQFLLEMPQGTTDYASNVE
As to B3, the plate clearing result was “not clears the plate”.

B4: unnamed (protein)
chain: MRKLLRRGPMRLLAVGLVIAVGVLATACDWRGPEPSDQLLTGTGPFGIGTISVPASAGFGGGTIYYPTGNPGPFAVVSFSPGFLEQSGAFPGWGNKLASHGFVAILFNTSNTGEFPDARSTEQRQALTYVINQGQNPSSPIFGLVDGNRTAVMGHSMGGGASLISAQADHTIDAVIPVAPWNGGTNFSGITSPTLVVACQSDSTAPVNSHASPFYNSIPSTTKKEYLSVAGGDHFCANDPSLVGGGNIGKYAVAFLKRWLDTDTRYDPWTCGASKATAGSVFNEVRSTCPW
As to B4, the plate clearing entry is “not clears the plate”.

B5: unnamed (protein)
chain: MRSSHVRIKKDKRATRMRSAPVSAREPTSARRVTHAQRADPLDRQRRQPMRFQQHASRLIKASILGSLVVLSAAATAQTNPFARGPNPTASALEATSGPFTVRNFTVSRPSGYGAGTVYYPTNAGGTVGAIAIVPGYTARQSSINWWGPRLASHGFVVITIDTNSTLDQPGSRSSQQMAALRQVVSLNGTSSSPIYNKVDTSRLGVMGWSMGGGGSLISAANNPSLKAAAPQAPWNTSTNFSSLTVPTLIFACENDSIAATRSHASPMYNSMRNNPRQYLEITRGSHSCANSGNSDRGLLGKKGVAWMKRYMDNDTRYTTFACQNPNTSRVSDFRVANCS
As for B5, the plate clearing entry is on record as “not clears the plate”.

B6: unnamed (protein)
chain: MPDADTGRRANRCGAGNPAEGNPVITTRKRLVRRLAALVLVAFALVACDIKGPDPTDAILTASSGPFGVGTLAVPTSAGFGGGTIYYPTGVDGPFAVISVAPGFTETASAVAEWGPRLASHGFVTIVFNTSNTFENPSTRSTEQRQALTYTINQSNTAGSPIAGLVDGNRRGVAGHSMGGGGTLISEQADSTIRAGVPLAPWNTSPDFPDITVPTLFLACQNDSIAPVANHASPMYESIPATTHKSFVSFAGGDHFCANSPTGGSSNAGKFAVAFFKKFLDGDTRYDPWVCGASKPAVNSAINEVRSTCPF
For B6, the plate clearing entry was “not clears the plate”.

B7: unnamed (protein)
chain: MKRTLSLRRLWQAMAACASLCIAAAASAQVGPDPTSAGLEASAGPFTVSTSSVSSYVRGFGGGTIYYPSAAGQYGVVAISPGFTATQSSVAWLGRRLASHGLVVITINTNSVFDMPASRATQLMAALNHVVSGASSTIRSRVDSTRLAVSGHSMGGGGALIAAQNNPTLRASLPLTPWNNATNFDTVRVPTLIFGADGDTVASASSHARPFYASLPATTLKAYAELNNANHSTPNSTNTPIGRYSVAWMKRFVDADARYSPFLCGEPHRTYATPAVFDRYNQNCPY
Take B7: the plate clearing result is recorded as “not clears the plate”.
